This is an account of results in article PMC9082315 (Frontiers in Immunology, 2022).

For test [1], the target named is T1, human fibrinogen (control antigen) (Homo sapiens, UniProt P02671;P02675;P02679-2, biotin | biotin | biotin).
T1 construct: also called human fribrinogen
The test can be described thus: flow cytometry on cells. Conditions: one partner purified. In general terms: A flow cytometer gives signals particle by particle.

The target in test [2] is monomeric SARS-CoV-2 RBD with Flag peptide and 8xHis-tag (RBD-FH) (SARS-CoV-2, WA1 (Wuhan-like), UniProt P0DTC2). The test can be described thus: SPR. The note with it: both partners purified.
Test [3] addresses monomeric SARS-CoV-2 RBD (S residues 332-534) with Flag peptide and 8xHis-tag (SARS-CoV-2, WA1 (Wuhan-like), UniProt P0DTC2, biotin (only in the flow cytometry on bacteria)). The test can be described thus: SPR. Conditions: both partners purified.

T1 sequence (P02671 36-866, chain 1 of 3): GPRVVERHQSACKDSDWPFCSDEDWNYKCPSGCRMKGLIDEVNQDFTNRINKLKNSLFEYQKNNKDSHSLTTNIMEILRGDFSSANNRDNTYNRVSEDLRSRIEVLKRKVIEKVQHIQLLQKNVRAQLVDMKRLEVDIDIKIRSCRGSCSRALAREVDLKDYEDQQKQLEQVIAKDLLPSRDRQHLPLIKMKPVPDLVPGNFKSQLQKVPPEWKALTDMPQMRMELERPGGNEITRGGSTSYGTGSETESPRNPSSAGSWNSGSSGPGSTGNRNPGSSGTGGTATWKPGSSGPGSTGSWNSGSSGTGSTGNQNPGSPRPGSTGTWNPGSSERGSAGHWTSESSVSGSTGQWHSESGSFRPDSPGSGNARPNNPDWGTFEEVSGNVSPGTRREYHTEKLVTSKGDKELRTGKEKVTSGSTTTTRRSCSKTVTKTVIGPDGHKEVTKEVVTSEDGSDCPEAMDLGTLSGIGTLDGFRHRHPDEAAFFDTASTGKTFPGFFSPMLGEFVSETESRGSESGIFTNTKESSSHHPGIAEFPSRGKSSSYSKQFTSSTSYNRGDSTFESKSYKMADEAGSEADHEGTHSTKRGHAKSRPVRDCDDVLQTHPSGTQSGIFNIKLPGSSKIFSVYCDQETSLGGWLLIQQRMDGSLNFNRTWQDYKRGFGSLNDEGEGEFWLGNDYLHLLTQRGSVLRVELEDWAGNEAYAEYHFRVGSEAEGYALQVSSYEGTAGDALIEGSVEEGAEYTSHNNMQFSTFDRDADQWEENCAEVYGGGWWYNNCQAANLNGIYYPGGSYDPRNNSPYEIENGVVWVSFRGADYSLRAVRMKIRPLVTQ
T1 sequence (P02675 45-491, chain 2 of 3): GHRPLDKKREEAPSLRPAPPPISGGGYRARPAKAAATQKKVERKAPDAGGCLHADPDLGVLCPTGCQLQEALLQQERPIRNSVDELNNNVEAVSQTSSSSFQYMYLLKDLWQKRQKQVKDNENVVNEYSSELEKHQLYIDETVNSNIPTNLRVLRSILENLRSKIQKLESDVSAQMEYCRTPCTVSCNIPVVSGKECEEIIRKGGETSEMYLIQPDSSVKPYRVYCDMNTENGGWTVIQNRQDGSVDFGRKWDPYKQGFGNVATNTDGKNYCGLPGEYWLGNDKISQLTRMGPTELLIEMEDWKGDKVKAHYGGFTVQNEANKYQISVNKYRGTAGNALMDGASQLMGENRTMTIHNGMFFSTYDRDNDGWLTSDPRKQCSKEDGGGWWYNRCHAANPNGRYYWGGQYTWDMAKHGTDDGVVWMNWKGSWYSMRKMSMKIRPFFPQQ
T1 sequence (P02679 27-453, chain 3 of 3): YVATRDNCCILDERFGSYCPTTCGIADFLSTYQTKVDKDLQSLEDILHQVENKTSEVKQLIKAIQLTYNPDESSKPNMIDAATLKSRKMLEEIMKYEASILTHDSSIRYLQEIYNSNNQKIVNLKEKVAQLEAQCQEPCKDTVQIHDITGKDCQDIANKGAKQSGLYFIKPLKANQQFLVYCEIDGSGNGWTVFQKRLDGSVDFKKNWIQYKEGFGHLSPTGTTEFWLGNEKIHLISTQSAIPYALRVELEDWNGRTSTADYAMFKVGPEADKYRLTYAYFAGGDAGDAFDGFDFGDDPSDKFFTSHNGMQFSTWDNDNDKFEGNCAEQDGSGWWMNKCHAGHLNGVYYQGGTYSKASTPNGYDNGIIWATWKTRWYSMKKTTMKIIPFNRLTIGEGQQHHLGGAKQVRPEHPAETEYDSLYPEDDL

B1: Nb 2.11 displayed on E. coli as intimin-Nb-myc tag fusion (VHH)
VHH: QVQLVESGGGSVQAGGSLRLSCAASGDASNRKCVSWFRRAPGKEREGVALIFPVGSSTAYADSVKGRFTISQDSAKDTVYLQMNNLKPEDSGTYYCAAVSWGGRCNLETQTVTFWGQGTQVTVSS
B1: in test [1], the binding result is “no binding (tested: 100 nM)”.

B2: 1.26 Nb (VHH)
VHH: QVQLVESGGGLVQAGGSLRLSCAATGYTWSSVCMGWFRQAPGKEREGVAGIPSGRNRPYYADSVKGRFTISQDNAKNAVFLLMNSLKPEDTAIYYCAPCSAPHDPEYNYWGQGTQVTVSS
With B2, in test [2], the Kd was 0.26 nM, the dissociation rate constant (koff) was 0.000624 s⁻¹ and the kon is 2.44e+06 M⁻¹ s⁻¹.

B3: Nb 1.26 displayed on E. coli as intimin-Nb-myc tag fusion (VHH)
VHH: B2 VHH
As for B3, the binding result in test [1] is “no binding (tested: 100 nM)”.

B4: Nb 1.26, monomeric nanobody (VHH)
VHH: B2 VHH
B4 registered a dissociation constant (Kd) in test [3] of around 0.3 nM.

B5: Nb 1.28 displayed on E. coli as intimin-Nb-myc tag fusion (VHH)
VHH: QVQLVESGGGSVQAGGSLRLSCAASGLTNIRCHMAWYRQAPGKGRELVSRITTNGVTDYADSVKERFTISRHNAENTVYLQMNSLKPEDTAVYYCAACGFSTTTYWGQGTQVTVSS
With B5, the binding result in test [1] is recorded as “no binding (tested: 100 nM)”.

B6: 1.10 Nb (VHH)
VHH: QVQLVESGGGSVQAGGSLRLSCAASGYTYSTCRKGWYRQAPGKERELVASITADGATYYLDSVKGRLTISQDNAKNTVYLQMNSLKPEDTAVYYCAASVKDFTCTFNSWGQGTQVTVSS
In test [2], B6 returned a Kd of 3.96 nM, a koff of 0.00137 s⁻¹ and an on-rate (kon) of 345000 M⁻¹ s⁻¹.

B7: Nb 1.10 displayed on E. coli as intimin-Nb-myc tag fusion (VHH)
VHH: B6 VHH
For B7, the binding result in test [1] is “no binding (tested: 100 nM)”.

B8: Nb 2.15 displayed on E. coli as intimin-Nb-myc tag fusion (VHH)
VHH: QVQLVESGGGSVQAGGSLKLSCAASGYASWARKCIGWFRQAPGQEREGVAAIFDFDGSTYYSDSVKGRFTISGDNAKNTVSLQMNSLLPKDTAVYYCTVAFGTCDNWYRGRGDYWGQGTQVTVSS
Turning to B8, the binding result in test [1] is “no binding (tested: 100 nM)”.

B9: 1.29 Nb (VHH)
VHH: QVQLVESGGGSVQAGGSLRLSCAASGYTINTDAVAWFRQAPGKGDERVAVIYTGSGNTNYADSVKGRFTISQDNAKNTVYLQMNSLKPEDTALYYCASGYYGASGYDFNNWGQGTQVTVSS
In test [2], B9 registered a Kd of 12.9 nM, a dissociation rate constant (koff) of 0.00614 s⁻¹ and an association rate constant (kon) of 476000 M⁻¹ s⁻¹.

B10: Nb 1.29, monomeric nanobody (VHH)
VHH: B9 VHH
Consider B10, for which, in test [3], the Kd stood at 13 nM. In other words, the double-digit nanomolar range.

B11: Nb 1.29 displayed on E. coli as intimin-Nb-myc tag fusion (VHH)
VHH: B9 VHH
Turning to B11, the binding result in test [1] is reported as “no binding (tested: 100 nM)”.

B12: Nb 2.1 displayed on E. coli as intimin-Nb-myc tag fusion (VHH)
VHH: QVQLVESGGGSVQAGGSLRLSCAAFGATISSAHMGWFRQAPGKEREGVAFRYTDGSSTYYTTSVRGRFTISQDNAKNTVYLQMNSLKPEDTAMYYCASNPSWGRLVGGQYNNWGQGTQITVSS
Turning to B12, the binding result in test [1] is “no binding (tested: 100 nM)”.

B13: Nb 1.16 displayed on E. coli as intimin-Nb-myc tag fusion (VHH)
VHH: QVQLVESGGGSVQAGGSLRLSCAASGNTSKRKCVGWFRRAPGKEREGVTLIYTVGGSTVYADSVKGRFTISQDNAKDTVYLQMNSLKPEDSAMYYCAAESWGRQCNLETHRFTFWGQGTQVTVSS
Take B13: the binding result in test [1] is reported as “no binding (tested: 100 nM)”.

B14: 2.20 Nb (VHH)
VHH: QVQLVESGGGSVQAGGSLRLSCAASGYTYNNYYMGWFRQAPGKEREGVAAINSDGLDTYVADSVKGRFTISRDNAKDTVHLQMNSLKPEDTAIYSCATGRTVYYSGYDFRLSVDDYWGQGTQVTVSS
In test [2], B14 had an equilibrium dissociation constant (Kd) of 0.77 nM, a koff of 0.00101 s⁻¹ and a kon of 1.3e+06 M⁻¹ s⁻¹.

B15: Nb 2.20 displayed on E. coli as intimin-Nb-myc tag fusion (VHH)
VHH: B14 VHH
On to B15, for which the binding result in test [1] is given as “no binding (tested: 100 nM)”.

One may read the Kd as the concentration at which binding is half-saturated. Lower therefore signals tighter binding. What is called koff is the first-order rate constant of dissociation. By kon is commonly meant a measure of how fast the partners come together. High values mean faster complex formation, low ones slower complex formation.
